Test [1] concerns the target syntaxin-1A (1–265) S225C, endogenous cysteines replaced by serine (Rattus norvegicus) (UniProt P32851). Briefly: FRET or BRET; stopped-flow; Alexa Fluor 488 (donor) and Alexa Fluor 647 (acceptor) on syntaxin and SNAP25; one partner fixed at 0.125 μM and the other titrated, or equimolar; 37 °C; 20 mM Hepes, 150 mM KCl, 0.1 mM TCEP, pH ~7.4.
In test [2] the target is 2:1 syntaxin:SNAP25 complex (premixed syntaxin-1A (1–265) S225C and SNAP25a (1–206) M49C) (Rattus norvegicus) (UniProt P32851). Briefly: FRET or BRET; stopped-flow; donor-labelled syntaxin and acceptor-labelled SNAP25 at 1:1, unlabeled synaptobrevin titrated in excess; syntaxin and SNAP25 premixed, or SNAP25 and synaptobrevin added together to syntaxin; 37 °C. For orientation: Bioluminescence resonance energy transfer reports proximity on the nanometre scale.

The target of test [3] is SNAP25a (1–206) M49C, endogenous cysteines replaced by serine (Rattus norvegicus) (UniProt P60881). Briefly: FRET or BRET + SEC; equimolar stopped-flow titration at 37 °C (kobs^2 hyperbolic) and size-exclusion chromatography of the 1:1 mix after overnight incubation at 4 °C (excess of free SNAP25).
The target is the same in test [4]. The test is described as follows: FRET or BRET; stopped-flow; Alexa Fluor 488 (donor) and Alexa Fluor 647 (acceptor) on syntaxin and SNAP25; one partner fixed at 0.125 μM and the other titrated, or equimolar; 37 °C; 20 mM Hepes, 150 mM KCl, 0.1 mM TCEP, pH ~7.4.

Three substances from PMC11381810 can be followed below.

With “SNAP25a (1–206) M49C, endogenous cysteines replaced by serine (from UniProt P60881-2 1-206) (natural protein)”, in test [1], the intercept of kobs over [SNAP25]0 was 0.019. Consider “synaptobrevin 2 (1–96) S61C (from UniProt P63045 1-96) (domain or fragment)”, for which the rate constant of the irreversible step (first, exponential phase) in test [2] worked out at 7520 M⁻¹ s⁻¹.

Take “syntaxin-1A (1–265) S225C, endogenous cysteines replaced by serine (from UniProt P32851 1-265) (domain or fragment)”: the stoichiometry N (syntaxin per SNAP25) in test [3] was 2. In test [4], this substance showed an intercept of kobs over [syntaxin]0 of 0.0032.
